Laboratory results from patent publication US11649460B2, “DNA aptamers, method for inhibiting human galectin-1 and method of treating a mammal in need thereof” (priority 2020, dated 2023).

Legend:
[1] = test system: HCT 116 human colorectal carcinoma; test: SRB cell proliferation (cytotoxicity) assay, HCT 116
From the text: (§1) The XLSTAT software was used to determine the IC50, TGI and LC50 values using the four-parameter logistic curve equation.

[2] = test system: MCF-7 human breast adenocarcinoma cell line; test: SRB cell proliferation (cytotoxicity) assay, MCF-7
From the text: as §1

[3] = test system: HT-29 human colorectal adenocarcinoma; test: SRB cell proliferation (cytotoxicity) assay, HT-29
From the text: as §1

[4] = test system: OVCAR-3 human ovarian adenocarcinoma cell line; test: SRB cell proliferation (cytotoxicity) assay, OVCAR-3
From the text: as §1

[5] = target: T1, native human galectin-1 (hGal1) (Homo sapiens, UniProt P09382); test: Thermofluor thermal shift assay (TSA), native galectin-1; assay type: binding; settings: 5 μM protein
T1 construct: 42; made in house; host or cells: E. coli strain M-15
T1 sequence (P09382 2-135): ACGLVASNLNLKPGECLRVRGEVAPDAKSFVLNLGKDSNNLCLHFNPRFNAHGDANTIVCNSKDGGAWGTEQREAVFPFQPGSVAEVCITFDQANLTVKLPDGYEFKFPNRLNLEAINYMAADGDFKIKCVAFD
Procedure: In an attempt to screen among the selected aptamers that better interact with hGal1, differential scanning fluorimetry (Termofluor) was used to characterize their binding to its target. Among all the selected aptamers, SEQ ID NO.: 4 seemed to have a more intense effect on hGal1 thermoshift and so was chosen for further analysis. The selected aptamer had its interaction evaluated with native and alkylated galectin-1. […] The respective thermal displacements were evaluated as a function of an increasing concentration of SEQ ID NO.: 4 (FIG. 1).
Thermofluor experiments were performed on an Mx3005 RT-PCR (Agilent Technologies) using the SYPRO® Orange dye (492/610 nm) (Invitrogen) as fluorescent probe. The purified (native and alkylated) protein samples were incubated for 30 min with increasing concentration of the molecules of interest, centrifuged, and submitted to the thermal denaturation assay, totalizing four distinct experiments. In a 96-well plate (Agilent Technologies) 20 μl of the reaction containing 5 μM of each protein in buffer PBS 1× and 5× SYPRO® Orange were heated from 25° C. to 95° C. at a rate of 1° C./min. The experimental result was processed as in the protocol previously described and the melting temperature was obtained using GraphPad Prism software (www.graphpad.com).

[6] = target: T2, hGal1-induced hemagglutination of red blood cells (Homo sapiens, UniProt P09382); test: Hemagglutination inhibition assay, native hGal1; assay type: cell-based; settings: native Gal1 5 μM
T2 construct: 42; made in house; host or cells: E. coli strain M-15
T2 sequence (P09382 2-135): as above
Procedure: Hemagglutination Inhibition Assay
(§2) Hemagglutination assay was adopted to assess the capacity of SEQ ID NO.: 4 in inhibiting the lectin cross-linking aggregation of red blood cells (RBC), as previously described. Briefly, using a 96-well microplates appropriate amounts of 5 μM hGal1 were blended with 50 μL of aptamer in an increasing concentrations manner (0-40 μM) in PBS 1× buffer (pH 7.4). Following, 50 μL of 3% purified type B+ RBC in PBS. After 2 h of room temperature incubation, the plate was photographed and the hemagglutination area was estimated by area calculator Sketchandcalc™ and the results were expressed as relative agglutination.

alkylated Gal1 = target: T3, alkylated Gal1 (Homo sapiens, UniProt P09382); test: Hemagglutination inhibition assay, alkylated Gal1; assay type: cell-based; settings: alkylated Gal1 5 μM
T3 construct: 42; made in house; host or cells: E. coli strain M-15
T3 sequence (P09382 2-135): as above
Procedure: FIG. 15 illustrates the hemagglutination test with constant protein concentration at 5 μM and titration of aptamers SEQ ID NO.: 4 and SEQ ID NO.: 9. (a) Titration with aptamer 4. The hemagglutination of native Gal1 was inhibited from the concentration of 10 μM of this compound.
as §2
It was observed that treating hGal-1 with Iodoacetamide, which covalently binds the acetamide group in all solvent accessible cysteines sulfhydryl side chain, abolishes the anti-hemagglutinating activity of the aptamer. According to the proposed binding mode, this happens because Cysteines 2, 88 and 130 interact directly with the aptamer and adding the acetamide group to their side chains would disrupt specific aptamer-protein interactions (FIG. 13C).

[7] = test system: NHF human foreskin skin fibroblasts; test: in vitro
From the text: as §1

[8] = test system: DU-145 human prostate carcinoma cell line; test: SRB cell proliferation (cytotoxicity) assay, DU-145
From the text: as §1

[9] = test system: SK-BR-3 human breast adenocarcinoma; test: SRB cell proliferation (cytotoxicity) assay, SK-BR-3
From the text: as §1

[10] = test system: A-375 human malignant melanoma; test: SRB cell proliferation (cytotoxicity) assay, A-375
From the text: as §1

B1: AGCTGACACAGCAGGTTGGTGCCCAAAAGAGCCAATCCACGACGACACCCCAAAAACCATATCACGAATACCCGAGTCGAGCAATCTCGAAAT (nucleic acid)
DNA: AGCTGACACAGCAGGTTGGTGCCCAAAAGAGCCAATCCACGACGACACCCCAAAAACCATATCACGAATACCCGAGTCGAGCAATCTCGAAAT
modifications: chemistry not given here
With B1 the “Relative cell viability (%) of test items” value (from here on “Relative cell viability (%)”) ([1]; 0.781 µM) was 99.9%, the “Relative cell viability (%)” value ([1]; 1.562 µM) was 94.6% and the “Relative cell viability (%)” value ([1]; 3.125 µM) was 87.9%. For the same molecule, the “Relative cell viability (%)” value ([1]; 6.25 µM) was 88.9%, the “Relative cell viability (%)” value ([1]; 12.5 µM) was 72.2% and the “Relative cell viability (%)” value ([1]; 25 µM) was 33.3%. For the same molecule, the “Relative cell viability (%)” value ([1]; 50 µM) was 11.5%, the “Relative cell viability (%)” value ([1]; 100 µM) was −19.5% and the “TGI: Concentration for total inhibition of cell growth” value ([1]; HCT 116) was 58.519 µM. For the same molecule, the IC50 ([1]; read-out: IC50: Concentration to inhibit 50% of cell growth, HCT 116) was 20.1 µM, the “Relative viability (%) of test items” value ([2]; 0.781 µM) was 103.8% and the “Relative viability (%) of test items” value ([2]; 1.562 µM) was 95.5%. For the same molecule, the “Relative viability (%) of test items” value ([2]; 3.125 µM) was 97.8%, the “Relative viability (%) of test items” value ([2]; 6.25 µM) was 84.8% and the “Relative viability (%) of test items” value ([2]; 12.5 µM) was 73.6%. The “Relative viability (%) of test items” value ([2]; 25 µM) was 55.1%, the “Relative viability (%) of test items” value ([2]; 50 µM) was 37.5% and the “Relative viability (%) of test items” value ([2]; 100 µM) was −19.5%. The “TGI: Concentration for total inhibition of cell growth” value ([2]; MCF-7) was 80.767 µM, the IC50 ([2]; read-out: IC50: Concentration to inhibit 50% of cell growth, MCF-7) was 32 µM and the CC50 ([2]; read-out: LC50: Concentration for 50% cell death, MCF-7) was > 100 µM. For the same molecule, the “Relative cell viability (%)” value ([3]; 0.781 µM) was 92.0%, the “Relative cell viability (%)” value ([3]; 1.562 µM) was 95.9% and the “Relative cell viability (%)” value ([3]; 3.125 µM) was 97.2%. For the same molecule, the “Relative cell viability (%)” value ([3]; 6.25 µM) was 92.5%, the “Relative cell viability (%)” value ([3]; 12.5 µM) was 83.1% and the “Relative cell viability (%)” value ([3]; 25 µM) was 32.7%. For the same molecule, the “Relative cell viability (%)” value ([3]; 50 µM) was 14.4%, the “Relative cell viability (%)” value ([3]; 100 µM) was 0.2% and the IC50 ([3]; read-out: IC50: Concentration to inhibit 50% of cell growth, HT-29) was 20.4 µM. The “Relative viability (%) of test items” value ([4]; 0.781 µM) was 105.9%, the “Relative viability (%) of test items” value ([4]; 1.562 µM) was 99.6% and the “Relative viability (%) of test items” value ([4]; 3.125 µM) was 93.9%. For the same molecule, the “Relative viability (%) of test items” value ([4]; 6.25 µM) was 84.3%, the “Relative viability (%) of test items” value ([4]; 12.5 µM) was 50.2% and the “Relative viability (%) of test items” value ([4]; 25 µM) was 23.4%. For the same molecule, the “Relative viability (%) of test items” value ([4]; 50 µM) was 8.1%, the “Relative viability (%) of test items” value ([4]; 100 µM) was −62.0% and the “TGI: Concentration for total inhibition of cell growth” value ([4]; OVCAR-3) was 45.952 µM. For the same molecule, the IC50 ([4]; read-out: IC50: Concentration to inhibit 50% of cell growth, OVCAR-3) was 16.1 µM, the CC50 ([4]; read-out: LC50: Concentration for 50% cell death, OVCAR-3) was 91.4 µM and the “variation of denaturation temperature (Tm) of native hGal1” value [5] was “greater variation”. The “concentration from which hemagglutination was inhibited” value [6] was 10 µM, the “inhibitory effect on galectin-induced hemagglutination” value [6] was “better effect” and the “effect on hemagglutination by alkylated Gal1” value (alkylated Gal1) was “no effect”. For the same molecule, the “Relative viability (%) of test items” value ([7]; 0.781 µM) was 104.0%, the “Relative viability (%) of test items” value ([7]; 1.562 µM) was 96.2% and the “Relative viability (%) of test items” value ([7]; 3.125 µM) was 95.7%. For the same molecule, the “Relative viability (%) of test items” value ([7]; 6.25 µM) was 92.7%, the “Relative viability (%) of test items” value ([7]; 12.5 µM) was 114.0% and the “Relative viability (%) of test items” value ([7]; 25 µM) was 84.6%. For the same molecule, the “Relative viability (%) of test items” value ([7]; 50 µM) was 44.6%, the “Relative viability (%) of test items” value ([7]; 100 µM) was −12.8% and the “TGI: Concentration for total inhibition of cell growth” value ([7]; NHF) was 83.697 µM. The IC50 ([7]; read-out: IC50: Concentration to inhibit 50% of cell growth, NHF) was 46.9 µM, the “Relative viability (%) of test items” value ([8]; 0.781 µM) was 106.1% and the “Relative viability (%) of test items” value ([8]; 1.562 µM) was 92.3%. The “Relative viability (%) of test items” value ([8]; 3.125 µM) was 106.4%, the “Relative viability (%) of test items” value ([8]; 6.25 µM) was 103.6% and the “Relative viability (%) of test items” value ([8]; 12.5 µM) was 98.7%. For the same molecule, the “Relative viability (%) of test items” value ([8]; 25 µM) was 82.5%, the “Relative viability (%) of test items” value ([8]; 50 µM) was 68.0% and the “Relative viability (%) of test items” value ([8]; 100 µM) was 36.6%. For the same molecule, the “TGI: Concentration for total inhibition of cell growth” value ([8]; DU-145) was >100 µM, the IC50 ([8]; read-out: IC50: Concentration to inhibit 50% of cell growth, DU-145) was 74 µM and the “Relative cell viability (%)” value ([9]; 0.781 µM) was 107.5%. The “Relative cell viability (%)” value ([9]; 1.562 µM) was 99.9%, the “Relative cell viability (%)” value ([9]; 3.125 µM) was 111.1% and the “Relative cell viability (%)” value ([9]; 6.25 µM) was 109.1%. For the same molecule, the “Relative cell viability (%)” value ([9]; 12.5 µM) was 98.5%, the “Relative cell viability (%)” value ([9]; 25 µM) was 48.7% and the “Relative cell viability (%)” value ([9]; 50 µM) was 3.1%. The “Relative cell viability (%)” value ([9]; 100 µM) was −70.0%, the “TGI: Concentration for total inhibition of cell growth” value ([9]; SK-BR-3) was 49.017 µM and the IC50 ([9]; read-out: IC50: Concentration to inhibit 50% of cell growth, SK-BR-3) was 28.3 µM. For the same molecule, the CC50 ([9]; read-out: LC50: Concentration for 50% cell death, SK-BR-3) was 80.7 µM, the “Relative cell viability (%)” value ([10]; 0.781 µM) was 121.2% and the “Relative cell viability (%)” value ([10]; 1.562 µM) was 107.1%. For the same molecule, the “Relative cell viability (%)” value ([10]; 3.125 µM) was 107.0%, the “Relative cell viability (%)” value ([10]; 6.25 µM) was 114.0% and the “Relative cell viability (%)” value ([10]; 12.5 µM) was 97.7%. The “Relative cell viability (%)” value ([10]; 25 µM) was 92.5%, the “Relative cell viability (%)” value ([10]; 50 µM) was 70.6% and the “Relative cell viability (%)” value ([10]; 100 µM) was −19.4%. The “TGI: Concentration for total inhibition of cell growth” value ([10]; A-375) was 90.397 µM, the IC50 ([10]; read-out: IC50: Concentration to inhibit 50% of cell growth, A-375) was 61.1 µM and the CC50 ([10]; read-out: LC50: Concentration for 50% cell death, A-375) was > 100 µM.
